Fewer inactive variants are shown than the library holds.
B1: TPR 5TU (parent)
chain: GGAUCUUCUCGAUCUAACAAAAAAGACAAAUCUGCCACAAAGCUUGAGAGCAUCUUCGGAUGCAGAGGCGGCAGCCUUCGGUGGCGCGAUAGCGCCAACGUUCUCAACUAUGACACGCAAAACGCGUGCUCCGUUGAAUGGAGUUUAUCAUG

Variants of: B1
Assay: polymerase ribozyme fitness, log enrichment relative to wild type (log ratio); higher = more active; in vitro selection for triplet polymerase activity
How it was run: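 Mutant libraries were PCR-built and transcribed for each subunit of a heterodimeric triplet polymerase ribozyme and selected for one round in triplicate at −7 °C, frozen, before gel excision of extended constructs and streptavidin-bead capture. Input and output libraries were Illumina-sequenced, keeping genotypes with ≥10 input reads and ≥1 read per output. Fitness is a logarithmic ratio of genotype to wild-type enrichment, in base 2, using inverse-variance-weighted replicate averages.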

Variant	polymerase ribozyme fitness (log ratio)
GGAUCUUCUCGAUCUAACAAAAAAGACAAAUCUGCCACAAAGCUUGAGAACUUCUUCGGAUGCAGAGGCGGCAGCCUCCGGUGGCGCGAUAGCGCCAACGUUCUCAACUAUGACAAGCAAAACGCGUGCUCCGUUGAAUGGAGUUUAUGAUG [G50A A52U U78C C116A C149G]	≤ -4.2
GGAUCGUCUCGAUCUAACAAAAAAGACAAAUCUGCCACAAAGCUUGAGAGCAUCUUCGGAUGCAGAGGCGGCAGCCUUCGGUGGCGCGAUAGGGCCAACGUUCUCAACUAUGACACGCAAAACGCGUGCUCCGUUGAAUGGAGUUUAUCAUG [U6G C93G]	-3.18
GGAUCUUCUCGAUCUAACAAAAAAGACAAAUCUGCCACAAAGCUUGAGAGCAUCUUCGGAUGCAGAGGCGGCAGCCUUCGGUGGCGCGAUAGCGCCAAAGUUCUCAACUAUGACACGCAAAACGCGUGCUCCGUUGAAUGGAGUUUAGCAUG [C99A U148G]	≤ -4.2
GGAUCUUCUCGAUCUAACAAAAAAGACAAAUCUGCCACAAAGCUUGAGAGCGUCUUCGGAUGCAGAGGCGGCGGCCUUCGGUGGCGCGAUAGCGCCAACGUUCUCAACUAUGACACGCAAAACGCGUGCUCCGUUGAAUGGAGUUUAUCAUG [A52G A73G]	-0.266
GGAUCUUCUCGAGCUAACAAAAAAGGCAAAGCUGCCACAAAGCUUGAGAGGAUCUUCGGAUGCAGAGGCGGCAGCCUUCGGUGGCGCCAUAGCGCCAACGUUCUCAACUAUGACACGCAAAACGCGUGCUCCGUUGAAUGGAGUUUAUCAUG [U13G A26G U31G C51G G88C]	≤ -4.2
GGUUCUUCUCGAUCUAACAAAAAAGACAAAUCUGCCACAAAGCUUGAGUGCAUCCUCGGAUGCAGAGGCGGCAGCCUUCGGUGGCGCGAUUGCGCCAACGUUCUCAACUAUGACACGCAAAACGCGUGCUCCGUUGAAUGGAGUUUAUCAUG [A3U A49U U55C A91U]	≤ -4.2
GGAUCUUCUCGAUCUAACAAAAAAGACAAAUCUGCCACAAAGCUUGAGAGCAUCUUCGGAUGCAGAGGCGGCAGCCUUCGGUGGGGCGAUAGCGCCAACGUUCUCAACUAUGACACGCAAGACGCGUGCUCUGUUGAAUGGAGUUUAUCAUG [C85G A121G C132U]	-2.88
GGAUAUUCUCGAUCUAACAAAAAAGACAAAUCUGCCAUAAAGCUUGAGAACAUCUUCGGGUGCAGAGGCGGCAGCCUUCGGUGGCGCGAUAGCGACAACGUUUUCAACUAUGACACGCAAAACGCUUGCUCCGUUGAAUGGAGUUUAUCAUG [C5A C38U G50A A60G C95A C103U G126U]	-3.13
GGAUCUUCUCGCUCUAACAAAAAAGACAAAUCUGCCACAAAGCUUGAGAGCAUCUUCGGAUGCAGAGGCGGCAGCCUUCGGUGGCGCGAUAGCGCCAGCGUUCUCAACUAUGACACGCAAAACGCGUGCUCCGUUGAAUGGAGUUUAUCAUG [A12C A98G]	-0.18
GGAUCUUCUUGAUUUACCAAAAAAGACAAAUCUGCCACAAAGCUUGAGAGCAUCUACGGAUGCAGAGGCGGCAGCCUUCGGUGGCGCGAUAGCGCCAACGUUCUCAACUAUGACACGCAAAACGCGUGCUCCGAUGUAUGGAGUUUAUCACG [C10U C14U A17C U56A U134A A137U U151C]	≤ -4.2
GGAUCUUCUCGGUCUAACAAAAAAGACAAAUCUGCCACAAAGCUUGAGAGCAACUUCGGAUGCAGAGACGGCAGCCUUCGGUGGCGCGAUAGCGCCAACGUUCUCAUCUAUGACACGCAAAACGCGUGCUCCGUUGAAUGGAGUUUAUCAUG [A12G U53A G68A A107U]	≤ -4.2
GGAUCUUCUCGAUCUAACAAAAAAGACAAAUCUGCCACAAAGCUUGAGAGCAUCUUCGGAUGCAGAGGCGGCAGCCUUCGGUGGCGUGAUAGCGCCAACGUUCUCAACUAUGACACGCAAAACGCGUGCUCCGUUGGAUGGAGUUUAUCAUG [C87U A137G]	-1.81
GGAUCUUCUCGAUCUAACAAAAAAGACAAAUCUGCCACAAAGCUUGAGAGCAUCUUCGGAUGCAGAGGCGCCAGCCUUCGGUGGCGCGAUUGUGCCAACGUUCGCAACUAUGACACGCAAAACGCGUGCUCCGUUGAAUGGAGUUUAUCAUG [G71C A91U C93U U104G]	≤ -4.2
GGAUCUUCUCGAUCUAACAAAAAAGACAAAUCUGCCACAAAGCUUGAGAGCCACUUCGGAUGCAGAGGCGGCAGCCUUCGGUGGCGCCAUAGCGUCAACGUUCUCAACUAUGACACGCAAAACGCGUGCUCCGUUGAAUGGAGUCUAUCAUG [A52C U53A G88C C95U U145C]	≤ -4.2
GGAUCUUCUCGAUCUAACAAAAAAGACAAAUGUGCCACAAAGCUUGAGAGCAUCUUCGGAUGCAGAGGCGGCAGCCUUUGGUGGCGCGAUAGCGCGAACGUUCUCAACUAUGACACGCAAAACGCGUGCUCCGUUGAAUGGCGUUUAUCAUG [C32G C79U C96G A142C]	-3.79
GGAUCUUCUCGAUCUAACAAAAAAGACAAAUCUGCCACAAAGCUUGAGAGCAUCUUCGGAUGCAGAGGCGGCAGCCUUCGGUGGCGCGAUAGCGCCAACGUUCUCAACUAUGACACGCAAAACGUGUGCUCCGUUGAAUGGAGUUUAUCUUG [C125U A150U]	-0.413
GGAUUUUCUCGAUCUAACAAUAAAGACAAAUCUGCCACAAAGCUUGAGAGCAUCUUCGGAUGCAGAGGCGGCAGCCUUCGGUGGCGCGAUAGCGCCAACGUUCUCAACUAUGACACGCAAAACGCGUGCUCCGUUGAAUGGAGUUUAUCAUG [C5U A21U]	1.4
GGAUCUUCUCGAUCUAACAAAAAAGACAAAUCUGCCACAAAGCUUGAGAGCAUCUUAGGAUGCAGAGGCGGCAGCCUUCGGUGGCGCGAUAGCGCCAACGUUCUCAACUAUGACACUCAAAACGCGUGCUCCGUUGAAUGGAGUUUAUCAUG [C57A G117U]	0.691
GGAUCUUCUCGAUCUAACAAAAAAGACAAAUCUGCCACAAAGCUUGAGAGCAUCUUCGGAUGCAGAGGCGGCAGCCUUCUGUGGAGCGAUAGCGCCAACGUUCUCAACUAUGACACGCAAAACGCGUGCUCCGUUGAAUGGAGUUUAUCAUG [G80U C85A]	-2.27

Source: the RNAGym collection of RNA variant scans (doi:10.1073/pnas.2313332121)
